Data taken from article PMC8646042.

Biological target: T1, endogenous IRF3 (human (endogenous in 293T)), Q14653
T1 chain: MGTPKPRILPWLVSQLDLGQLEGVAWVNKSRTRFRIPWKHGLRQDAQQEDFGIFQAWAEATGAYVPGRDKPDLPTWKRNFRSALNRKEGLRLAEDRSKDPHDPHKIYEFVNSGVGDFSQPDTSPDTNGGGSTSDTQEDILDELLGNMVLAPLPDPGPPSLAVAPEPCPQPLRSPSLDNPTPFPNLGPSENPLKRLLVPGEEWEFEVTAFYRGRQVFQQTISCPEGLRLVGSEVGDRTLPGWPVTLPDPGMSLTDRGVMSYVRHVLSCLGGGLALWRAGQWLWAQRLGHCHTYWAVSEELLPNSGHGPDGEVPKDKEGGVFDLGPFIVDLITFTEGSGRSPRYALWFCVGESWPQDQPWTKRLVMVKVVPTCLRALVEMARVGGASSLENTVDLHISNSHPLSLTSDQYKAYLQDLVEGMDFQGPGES
Assay: native gel or EMSA; Native PAGE of lysates of 293T or MCF7 cells and western blot with anti-IRF3; SeV infection for 12 h or MAVS transfection; N4BP3 overexpressed, knocked down or knocked out
Settings: remark: other sources report otherwise

stoichiometry N: 2
B1: endogenous IRF3, Q14653 1-427 (natural protein)
chain: T1 chain
